# Test results taken from PMC12185008, “The PavMYB.C2-UFGT module contributes to fruit coloration via modulating anthocyanin biosynthesis in sweet cherry”.
# T1: PavMYB.C2 (Prunus avium (sweet cherry), UniProt A0A6P5T6R9 1-74)
# T1 sequence: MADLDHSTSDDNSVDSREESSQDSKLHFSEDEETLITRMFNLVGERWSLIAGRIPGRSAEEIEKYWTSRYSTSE
# B1: UFGT promoter MBS2 probe (dsDNA)
# DNA 1: TGAGAGAAAGAAATAAAAATCAGAAACAAAGGTAGCGTTTTTCTTTCTTT
# DNA 2: AAAGAAAGAAAAACGCTACCTTTGTTTCTGATTTTTATTTCTTTCTCTCA
# B2: UFGT promoter MBS1 probe (dsDNA)
# DNA 1: GATCGATATTTAGAGAGAGAAACAACCACCCGCGTGATGTGTGAGAGAAA
# DNA 2: TTTCTCTCACACATCACGCGGGTGGTTGTTTCTCTCTCTAAATATCGATC
# B3: UFGT promoter MBS3 probe (dsDNA)
# DNA 1: TTCACTCCTCGACTCAGCAAGTGGTTATTTAGTGGTAGAGTTTGTTTTGA
# DNA 2: TCAAAACAAACTCTACCACTAAATAACCACTTGCTGAGTCGAGGAGTGAA
# Target: T1, PavMYB.C2
# Assay: EMSA; EMSA/Gel-Shift Kit (Beyotime) with LightShift chemiluminescent EMSA kit (Thermo Fisher), standard protocol; buffer, salt, pH and temperature not stated
# Conditions: protein: recombinant; tags: GST (pGEX-4T-1); label: 3' biotin (Methods); blunt
row,Binder,binding result
1,B1,no binding
2,B2,no binding
3,B3,binds
